Among the data in the supplement of paper PMC10126150 are switch fluorescence ratio values, retold here.

± gives the standard deviation of the averaged measurements.
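Further: ATP exposure 15 min at 22 °C before imaging.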

The data set has as its system ATP. Description: switch fluorescence ratio, 500 uM ATP over buffer (Cy3 cluster intensity, sum of 5 cycles each) (fold (ratio)); higher = stronger signal-on switching upon ATP binding; sequences stand for … in TCGTCGGCAGCGTCAGATGTGTATAAGAGACAGTTTTTTTTTTTTTTTTTTTTTTTTT…TC. Conditions: aptamer strand: ATP DNA aptamer (quencher-CACCTGGGGGAGTATTGCGGAGGAAGG + anchor), 100 nM annealed; ATP concentration: 500 uM. The method in brief: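 Five buffer/ATP imaging cycles were run on Cy3-labelled switching-strand clusters on a modified Illumina MiSeq flow-cell, with NaOH stripping and re-annealing between cycles. In each cycle, clusters annealed to 100 nM quencher-labelled ATP aptamer were imaged in selection buffer, then after 15 min with 500 uM ATP at 22 °C. Per cluster, the fluorescence ratio is summed target-cycle over summed buffer-cycle Cy3 intensity, averaged per switch-domain sequence. Only clusters within 100-1000 RFU were kept.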
TAAGAGGAGT: the switch fluorescence ratio worked out at 0.985 ± 0.013.

GCTTCGGGGG: the switch fluorescence ratio was 1.06 ± 0.043.

As for GGCTGGGGGT, the switch fluorescence ratio turned out to be 1.1 ± 0.07.

Take ACGGGGGTTA: the switch fluorescence ratio stood at 1.02 ± 0.024.

Take GATAAGATGG: the switch fluorescence ratio came to 0.979 ± 0.034.

Consider AGGGGGAAGT, for which the switch fluorescence ratio was 0.99 ± 0.045.

As for CTGTTTTTAT, the switch fluorescence ratio was determined as 1.01 ± 0.034.

For AAAAACGTCT, the switch fluorescence ratio stood at 1.1 ± 0.016.

Take AGGGGTTAAA: the switch fluorescence ratio was 1.01 ± 0.022.

On to GGGCAGAGGC, for which the switch fluorescence ratio amounted to 1.06 ± 0.029.

As for CGGTGTAGCC, the switch fluorescence ratio is 1.02 ± 0.014.

Regarding AAAAGGTGTA, the switch fluorescence ratio turned out to be 0.99 ± 0.0095.

For the sequence ATTCGGGAAG, the switch fluorescence ratio is 1.003 ± 0.0078.

Turning to TGTAGAGGGT, the switch fluorescence ratio was 0.976 ± 0.029.

As for AACATGGAGG, the switch fluorescence ratio was found to be 0.968 ± 0.031.

With AAGGCACGCT, the switch fluorescence ratio turned out to be 1 ± 0.065.

As for ATTCTAGGTA, the switch fluorescence ratio amounted to 1 ± 0.015.

As to AATTTGGGGG, the switch fluorescence ratio is 1.02 ± 0.039.

On to GGTTGCTGCC, for which the switch fluorescence ratio worked out at 0.9917 ± 0.0029.

Turning to GGGCAGTTTT, the switch fluorescence ratio is 0.991 ± 0.023.

Turning to GGGGTTGAAT, the switch fluorescence ratio turned out to be 1.01 ± 0.046.

For ATTACGAAGA, the switch fluorescence ratio worked out at 1.01 ± 0.011.

As to GTAGGCCATG, the switch fluorescence ratio was determined as 1 ± 0.022.

TTGAGGGATA: the switch fluorescence ratio was determined as 1.01 ± 0.055.

In the case of ATAAGTGAAA, the switch fluorescence ratio came out at 1.07 ± 0.15.

On to TAGGCTTAGC, for which the switch fluorescence ratio worked out at 0.9671 ± 0.0069.

ATTTTGATTT: the switch fluorescence ratio stood at 1 ± 0.028.

Regarding TGCAGGGCGC, the switch fluorescence ratio came to 1.04 ± 0.028.

Regarding AATTTATTGG, the switch fluorescence ratio turned out to be 1.01 ± 0.013.

For CCAGGGGGTT, the switch fluorescence ratio worked out at 1.51 ± 0.59.

With GAAACAGATA, the switch fluorescence ratio was 1 ± 0.012.

As to TTACGTGCTG, the switch fluorescence ratio was 0.9806 ± 0.0083.

For CAGGTTTCGG, the switch fluorescence ratio turned out to be 0.987 ± 0.022.

In the case of TAATTATTAA, the switch fluorescence ratio is 1.01 ± 0.019.

In the case of AAAGAATTTT, the switch fluorescence ratio worked out at 1 ± 0.05.

For the sequence CGAGTATGCA, the switch fluorescence ratio stood at 0.981 ± 0.024.

As for GACCCGGGTG, the switch fluorescence ratio was 2.98 ± 0.18.

On to GGACAGGTTT, for which the switch fluorescence ratio is 0.9784 ± 0.0034.

Regarding TATTTTCATT, the switch fluorescence ratio was 0.999 ± 0.015.

Take ATACTTTTTT: the switch fluorescence ratio is 1.01 ± 0.061.

As to GTTGATCCGA, the switch fluorescence ratio stood at 0.971 ± 0.013.

For the sequence ACGATAGAGG, the switch fluorescence ratio is 1.14 ± 0.015.

With GGAAGGTGGG, the switch fluorescence ratio is 1.15 ± 0.25.

In the case of TTGGCTAATT, the switch fluorescence ratio turned out to be 1 ± 0.034.

Turning to CTCGGACGGG, the switch fluorescence ratio worked out at 0.995 ± 0.046.

In the case of TTTACGAAAA, the switch fluorescence ratio is 1.12 ± 0.046.

Consider CTTAGGGAGC, for which the switch fluorescence ratio came to 0.969 ± 0.085.

Turning to ATCATGATTC, the switch fluorescence ratio came to 0.983 ± 0.018.

With TCAATTCTGA, the switch fluorescence ratio stood at 1.002 ± 0.0075.

Turning to TTTTATAAGG, the switch fluorescence ratio is 1.01 ± 0.023.

Consider GTAGTAGCGT, for which the switch fluorescence ratio was 0.969 ± 0.022.

As for GGTGTCGTG, the switch fluorescence ratio is 0.98 ± 0.024.

Turning to AGGCTGGGGT, the switch fluorescence ratio worked out at 1.02 ± 0.031.

Take ATTCTATATC: the switch fluorescence ratio amounted to 0.97 ± 0.021.

For GGGTATTTGT, the switch fluorescence ratio was 1 ± 0.03.

For AAGGTATGCT, the switch fluorescence ratio was 0.982 ± 0.019.

Take CGATAATGTG: the switch fluorescence ratio amounted to 0.9727 ± 0.0063.

Regarding TAAAAGATGG, the switch fluorescence ratio is 1.02 ± 0.019.

As for AAGAACTAAA, the switch fluorescence ratio amounted to 1.05 ± 0.081.

Consider TCAAGTAAAG, for which the switch fluorescence ratio stood at 1.14 ± 0.23.

As to TAGGGGTGTA, the switch fluorescence ratio turned out to be 1 ± 0.04.

As to GGTTTAGGCC, the switch fluorescence ratio amounted to 0.991 ± 0.03.

Consider TCGAGGGAAC, for which the switch fluorescence ratio turned out to be 1.03 ± 0.018.

GCGAGGTAGG: the switch fluorescence ratio was 0.9669 ± 0.0043.

TGTTTGGTTA: the switch fluorescence ratio came to 0.995 ± 0.017.

For the sequence CGGGGTAAGG, the switch fluorescence ratio was 0.988 ± 0.024.

Take ACAAGGGAGC: the switch fluorescence ratio is 0.954 ± 0.018.

For TCTTAGACAT, the switch fluorescence ratio stood at 0.9646 ± 0.0028.

Take TCAACCTACG: the switch fluorescence ratio worked out at 1.36 ± 0.17.

Take TTAAGGGGCT: the switch fluorescence ratio is 1.01 ± 0.018.

Regarding ATCGAAGGTA, the switch fluorescence ratio stood at 0.985 ± 0.013.

GGGTGTTCCT: the switch fluorescence ratio stood at 0.989 ± 0.039.

Take AGTGAGGGAA: the switch fluorescence ratio came to 0.9787 ± 0.003.

For GTTCGGCGAA, the switch fluorescence ratio amounted to 1.02 ± 0.024.

Consider TTTGAAGAAC, for which the switch fluorescence ratio came to 1.01 ± 0.056.

CGGTACTCGA: the switch fluorescence ratio turned out to be 0.993 ± 0.015.

For the sequence CTCCTGGACT, the switch fluorescence ratio was determined as 1.069 ± 0.0061.

AGAGAGGAGT: the switch fluorescence ratio came to 0.982 ± 0.021.

With TCGAATGGAT, the switch fluorescence ratio was found to be 0.991 ± 0.011.

Consider GCGTAATGTT, for which the switch fluorescence ratio was determined as 0.999 ± 0.022.

Regarding GGATATATTG, the switch fluorescence ratio was determined as 1.02 ± 0.024.

For ACATGGGCTA, the switch fluorescence ratio was found to be 1.09 ± 0.11.

Consider CTTGTATACG, for which the switch fluorescence ratio came to 0.9888 ± 0.001.

Regarding GAGCAAAAGG, the switch fluorescence ratio worked out at 1.004 ± 0.0058.

For the sequence CGGTAGCTTG, the switch fluorescence ratio is 1 ± 0.019.

In the case of GATATATATG, the switch fluorescence ratio stood at 1.01 ± 0.015.

As for TAGGGGGCGT, the switch fluorescence ratio is 0.987 ± 0.0032.

With TTCGGCTCTC, the switch fluorescence ratio was 1.63 ± 0.86.

As to GCCAGGGAGG, the switch fluorescence ratio came to 1.03 ± 0.026.

As for TAGATGTATT, the switch fluorescence ratio amounted to 0.974 ± 0.013.

On to GATGTTTATG, for which the switch fluorescence ratio is 0.975 ± 0.036.

On to TTTGTCTGAC, for which the switch fluorescence ratio worked out at 0.9946 ± 0.0028.

In the case of GGGAGTATAT, the switch fluorescence ratio turned out to be 0.992 ± 0.016.

With TTGTTATTAG, the switch fluorescence ratio was found to be 1.03 ± 0.047.

For GGCATCGAAG, the switch fluorescence ratio turned out to be 1 ± 0.027.

For TTTGGGCCGC, the switch fluorescence ratio stood at 1.06 ± 0.05.

As to GTCTCGTTCC, the switch fluorescence ratio came out at 1.09 ± 0.14.

As for GGGCTAAAGA, the switch fluorescence ratio was found to be 1.01 ± 0.013.

For the sequence GCAAGACGTT, the switch fluorescence ratio turned out to be 1.51 ± 0.045.

As to TTTAATGAAC, the switch fluorescence ratio turned out to be 1 ± 0.074.

Turning to TTGAGGATCA, the switch fluorescence ratio is 1.02 ± 0.029.

As for GAAGTCGTGC, the switch fluorescence ratio turned out to be 0.999 ± 0.023.

Take GTGGGGGGGA: the switch fluorescence ratio was determined as 1.01 ± 0.023.

As to CAGAAGGATA, the switch fluorescence ratio was 1.03 ± 0.013.

Turning to ACACGGGGGA, the switch fluorescence ratio turned out to be 1.01 ± 0.024.

On to ATAAAGTTGG, for which the switch fluorescence ratio came to 0.991 ± 0.0075.

In the case of ATCGGTATTT, the switch fluorescence ratio stood at 1.19 ± 0.39.

With GAGGCGGTGG, the switch fluorescence ratio amounted to 1.009 ± 0.005.

For the sequence TTATTAAGTG, the switch fluorescence ratio was found to be 1 ± 0.017.

Turning to AACGCTGGGT, the switch fluorescence ratio was 1.0379 ± 0.00084.

For the sequence GGTGAGTTGG, the switch fluorescence ratio was determined as 0.977 ± 0.014.

Take ATTCTACGGA: the switch fluorescence ratio came out at 1.02 ± 0.021.

Take GATACATGGG: the switch fluorescence ratio is 0.985 ± 0.038.

Take TTTTGAATCG: the switch fluorescence ratio came to 1.008 ± 0.0091.

For the sequence TATAGACTTT, the switch fluorescence ratio turned out to be 1.02 ± 0.019.

On to CGACGGATTT, for which the switch fluorescence ratio stood at 1.12 ± 0.029.

For GTATGGTGGG, the switch fluorescence ratio worked out at 1.02 ± 0.04.

With AACGTTAGCG, the switch fluorescence ratio is 1.002 ± 0.0045.

With CGATAACCTT, the switch fluorescence ratio is 1.48 ± 0.48.

Turning to GGTGTGTTAA, the switch fluorescence ratio stood at 0.996 ± 0.042.
